In patent publication US10155811B2, “APLNR modulators and uses thereof” (Regeneron Pharmaceuticals, Inc., priority 2013, dated 2018):
Values joined by “and” are separate entries in the source; they are usually repeats but may differ in a detail not shown here. Equal entries are not always repeated. “Also recorded” adds a separate entry of the source.

T1: hAPLNR (Homo sapiens, UniProt P35414)
T1 sequence (P35414 1-380): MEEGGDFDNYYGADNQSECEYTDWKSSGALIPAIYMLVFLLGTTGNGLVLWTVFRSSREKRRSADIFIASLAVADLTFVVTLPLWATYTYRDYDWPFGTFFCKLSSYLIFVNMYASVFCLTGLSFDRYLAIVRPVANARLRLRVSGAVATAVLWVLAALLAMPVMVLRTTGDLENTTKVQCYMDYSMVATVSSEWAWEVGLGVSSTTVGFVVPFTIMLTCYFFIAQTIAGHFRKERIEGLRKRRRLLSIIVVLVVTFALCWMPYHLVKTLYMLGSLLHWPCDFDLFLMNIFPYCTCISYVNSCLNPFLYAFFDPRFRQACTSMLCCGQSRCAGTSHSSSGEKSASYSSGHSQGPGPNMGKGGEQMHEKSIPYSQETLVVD


Experiments:
[1] = molecular target: T1, hAPLNR; experiment: CRE assay of modified apelin peptides in HEK293/CRE-luc/hAPLNR cells; format: cell-based; parameters: expressed in transfected cells
Method: Briefly, an HEK293 cell line was transfected to stably express the full-length human hAPLNR (amino acids 1-380 of accession number NP_005152.1), along with a luciferase reporter [cAMP response element (CRE,4X)-luciferase]. […] After 5 hours of incubation at 37° C. in 5% CO2, luminescence was measured following the addition of One Glo reagent (Promega, #E6051) using a Victor X instrument (Perkin Elmer). The data were fit by nonlinear regression to a 4-parameter logistic equation with Prism 5 software (GraphPad).

[2] = tested on: HEK293 parental cells; experiment: FACS binding to HEK293 parental cells; details: Table 3; 10 μg/mL antibody; anti-mouse IgG Alexa 647
Method: Binding ratios for human APLNR binding to purified anti-APLNR monoclonal antibodies were determined by a fluorescence-activated cell sorting (FACS) binding assay. […] The resulting stable cell lines, HEK293/CRE-luc/hAPLNR and HEK293/CRE-luc/MfAPLNR, were maintained in DMEM containing 10% FBS, NEAA, and penicillin/streptomycin with either 100 μg/mL Hygromycin B for hAPLNR cells or 500 μg/mL G418 for MfAPLNR cells.
For the FACS analysis, HEK293 parental, HEK293/CRE-luc/hAPLNR, and, HEK293/CRE-luc/mfAPLNR cells were dissociated using Enzyme Free Dissociation reagent (#S-004, Millipore, Billerica, Mass., USA) and 10^6 cells/well were plated onto 96-well v-bottom plates in PBS containing 1% FBS. […] Cells were then filtered and analyzed on Accuri Flow Cytometer (BD Biosciences, San Jose, Calif., USA). Unstained and secondary antibody alone controls were also tested for binding to all cell lines. […] Geometric mean (Geom. mean) of fluorescence for each antibody was then normalized to geometric mean of unstained cells to obtain relative binding of antibody (binding ratios) per each cell type: HEK293 (parental), HEK293/CRE-luc/hAPLNR and HEK293/CRE-luc/MfAPLNR.

[3] = molecular target: T1, hAPLNR; experiment: CRE-luciferase cyclic AMP assay, activation of hAPLNR (inhibition of Forskolin-induced cAMP) in HEK293/CRE-luc/hAPLNR cells; format: cell-based; parameters: expressed in transfected cells; details: without Apelin, % of maximum Apelin activation
Method: The ability of anti-APLNR antibodies to activate hAPLNR-mediated cell signaling was measured using a cyclic AMP assay. The hAPLNR is a 7-transmembrane G-protein coupled receptor (GPCR).
The resulting cell line, HEK293/CRE-luc/hAPLNR, was maintained in DMEM containing 10% FBS, NEAA, pencillin/streptomycin, and 100 μg/mL Hygromycin B.
Testing of antibodies included a no antibody control.
The results of all assays were analyzed using nonlinear regression (4-parameter logistics) within Prism 5 software (GraphPad).

[4] = molecular target: T1, hAPLNR; experiment: retinal vascular development (RVD) model in humanized APLNR mouse pups; format: in vivo; parameters: from tissue; host or cells: developing retina of humanized APLNR mouse pups (75% C57BL6 / 25% Sv129), in vivo
Method: A retinal vascular development (RVD) model was used to evaluate the effects of an antagonistic anti-APLNR antibody on blood vessel outgrowth in the normal developing retina of mouse pups that were of a mixed background strain (75% C57BL6 and 25% Sv129) and homozygous for expression of human APLNR in place of mouse APLNR (humanized APLNR mice). Pups were subcutaneously injected on postnatal day 2 (P2) with either 50 mg/kg of an anti-APLNR antagonist antibody, H2aM9232N, or an irrelevant human Fc (hFc) control. Reagents were masked and labeled as Solution A and Solution B to prevent experimenter bias. At postnatal day 5, tissue samples were collected and then fixed in PBS containing 4% paraformaldehyde. Fixed tissue samples were washed with PBS three times for 15 minutes, and subsequently stained with GS Lectin I (Vector Laboratories, #FL-1101) diluted 1:200 in 1×PBS containing 1% BSA in 0.25% Triton-X 100 overnight at 25° C. to visualize retinal vasculature. The following day, stained samples were rinsed with PBS three times for 15 minutes each, flat-mounted onto slides, and coverslips were subsequently mounted using Prolong Gold (Invitrogen, #P36930). Images were taken at 20 times magnification using an epi-fluorescent microscope (Nikon Eclipse 80). The vascularized areas in the retina were measured from acquired images from this assay using Adobe Photoshop CS6 extended. Statistical differences between the results obtained from the IgG control antibody and H2aM9232N treated samples were assessed using a two tailed, unpaired Student T-test (**, p<0.001). Only after retinal vasculature area measurements and statistical analysis were completed, the sample identities were unmasked.

efficacy in the CRE assay relative to apelin-13 [1]	% Activation at 100 nM mAb (at 10 uM Forskolin) ([3]; Table 6A)	Retinal blood vessel outgrowth (mm^2), MEAN ([4]; group mean, 50 mg/kg subcutaneous at P2, measured at P5)	mean reduction in retinal blood vessel outgrowth compared to control (hFc) ([4]; single subcutaneous injection 50 mg/kg, postnatal day 5)	Molecule	Binding Ratio of Geom. Mean to Unstained Cells, HEK293 Parental [2]	% Activation at 500 nM mAb (at […] Forskolin) ([3]; Table 6B)	Retinal blood vessel outgrowth (mm^2) ([4]; individual eyes (OD/OS), 50 mg/kg subcutaneous at P2, measured at P5, 50 mg/kg)
retain full efficacy				CSCC[C@H](NC(=O)[C@@H]1CCCN1C(=O)CNC(=O)[C@H](CCCCN)NC(=O)[C@H](Cc1c[nH]cn1)NC(=O)[C@H](CO)NC(=O)[C@H](CC(C)C)NC(=O)[C@H](CCCNC(=N)N)NC(=O)[C@@H]1CCCN1C(=O)[C@H](CCCNC(=N)N)NC(=O)[C@@H](N)CCC(N)=O)C(=O)N1CCC[C@H]1C(=O)N[C@@H](Cc1ccccc1)C(=O)NCC(=O)NCC(=O)NCC(=O)NCC(=O)NCC(=O)O [Apelin-13 + 5G]			
	No Activation	2.84 mm^2	approximately 30%	H2aM9232N: antagonistic anti-APLNR antibody, HCVR/LCVR SEQ ID NO: 98/106, mouse IgG2a Fc (antibody, V domains shown, mouse IgG2a Fc) VH: QVKLVESGGGVVQPGRSLRLSCAASGFTFSNYVIHWVRQAPGKGLEWVAVIWYDGSNKYYADSVKGRFTISRDNSKNTLYLQMNSLRAEDTAVYYCARDRVVRGVDYYYYYGLDVWGQGTSVTVSS VL: EIVMTQSPATLSVSPGERATLSCRASQSVRSNLAWYQQKPGQAPRLLIYGASSRATGIPARFSGTGSGTEFTLTISSLQSDDFAVYYCQQYNKWPRTFGQGTKVEIK	6	did not demonstrate any measurable activation; also recorded: No Activation	2.49 mm^2 and 3.04 mm^2 and 3.57 mm^2 and 3.32 mm^2 and 2.23 mm^2 and 2.36 mm^2
